Where no end group is shown, it is not given here. [ ]: non-standard residue; d: D form.
B1: VIB-0068909 (peptide)
peptide: DIXWS
modifications: D-aspartic acid at position 1; position 3 (X) is the non-natural residue F57 = 4-methylaniline
notes: Peptidomimetic 5-mer; X marks the non-natural residue
B2: VIB-0068870 (peptide)
peptide: [dD]IYWS-{N‑(1,3,4-thiadiazol-2-yl)amide}
notes: also called VIB-0068870-001; dIYWS*
B3: VIB-0068914 (peptide)
peptide: [dD]IYYS
notes: also called dIYYS
B4: VIB-0068884 (peptide)
peptide: {(1-aminocyclobutyl)N‑methanone}-[dD]IYWS
modifications: not fully specified
notes: also called *dIYWS
B5: VIB-0068902 (peptide)
peptide: [dD]IYWS
notes: also called dIYWS
B6: VIB-0068875 (peptide)
peptide: [dD]IYWS-{N‑(2-(4-methylpiperazin-1-yl)-2-oxoethyl)amide}
notes: also called dIYWS**
B7: VIB-0068912 (peptide)
peptide: DIXWS
modifications: D-aspartic acid at position 1; position 3 (X) is the non-natural residue F86 = 1-chloro-4-methylbenzene
notes: as for B1
B8: VIB_P44 (peptide)
peptide: PVHMS
B9: VIB_P56 (peptide)
peptide: NVWWG
B10: VIB_P66 (peptide)
peptide: NIWWS
B11: VIB_P48 (peptide)
peptide: NVWWS
B12: VIB_P37 (peptide)
peptide: DIHWS
B13: VIB_P68 (peptide)
peptide: NIYWG
B14: VIB_P58 (peptide)
peptide: NFYWS
B15: VIB_P49 (peptide)
peptide: PIYWS
B16: VIB_P60 (peptide)
peptide: GVYWS
B17: VIB_P29 (peptide)
peptide: DIWWG
notes: also called VIB_29
B18: VIB_P53 (peptide)
peptide: DVYWG
B19: VIB_P63 (peptide)
peptide: NIYWS
B20: VIB_P65 (peptide)
peptide: NIWWG
B21: VIB_P35 (peptide)
peptide: DIFWS
B22: VIB_P42 (peptide)
peptide: DIYWG
B23: VIB_P43 (peptide)
peptide: DIYWS
modifications: not fully specified
notes: also called VIB_43; DIYWS
B24: VIB_P47 (peptide)
peptide: GIYWS
B25: VIB_P41 (peptide)
peptide: SVYWS
B26: VIB_P39 (peptide)
peptide: DVWWS

What follows are binders tested against T1, Sushi domain 1 of the human GABA B1a receptor (human, UniProt Q9UBS5 26-96) (assay: FP competition vs FITC-9mer on purified SD1).
T1 construct: Purified recombinant protein from E. coli; also called SD1; GABABR1a-SD1
Procedure: To screen for GABABR1a binders using unlabelled test compounds, the assay was turned into a competition assay using FITC-9mer. […] To validate this inhibitor assay, the IC50 values were determined of the 17-mer, 9-mer, 5-mer as well as those from 3 negative controls: 10-mer, scrambled 17-mer and a scrambled 9-mer (FIG. 2).
Based on structural information of DIYWS-SD1 and DIWWS-SD1 co-crystals, 48 peptides containing non-natural residues were manually designed and checked for binding to the GABABR1a SD1 in the FP assay at a concentration of 50 μM. These non-natural peptides were categorized based on the IC50 values obtained in the FP assay (Table 3). […] The listed non-natural 5-mers all share D-aspartate was on position 1 (residue position 4 of the 9-mer), L-isoleucine on position 2 (residue position 5 of the 9-mer), L-tryptophane on position 4 (residue position 7 of the 9-mer) and L-serine on position 5 (residue position 8 of the 9-mer), while position 3 is selected from the list consisting of L-tyrosine, isoethylmethyl-benzene, 6-chloro-3-methyl-1H-indole, methylcyclohexane, ethylcyclohexane, 2-naphthalene, ethylbenzene, 1,1-difluoro-4-cyclohexyl, 4-methyl-1-methoxy-2-methylbenzene, 1-chloro-4-methylbenzene, 4-methylphenyl-methanol, 3-methylbenzoic acid and 4-methylaniline.

T1 sequence (Q9UBS5 26-96 limits assumed): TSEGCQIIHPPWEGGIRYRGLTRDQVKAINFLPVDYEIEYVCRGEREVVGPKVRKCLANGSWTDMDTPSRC

In order of falling “% inhibition 50 µM” value:
1. B5  76.8%
2. B3  72.4%
3. B7  66.2%
4. B1  44.2%
5. B6  41.8%
6. B4  41.5%
7. B2  34.6%

In order of falling IC50:
1. B4  100 µM
2. B1  88.3 µM
3. B6  71.2 µM
4. B7  32.7 µM
5. B2  16.5 µM

Target: T1, Sushi domain 1 of the human GABA B1a …
Experiment: FP competition vs FITC-9mer on purified SD1
Remark: another data set of the same source
Procedure: Next, 35 variants of the DVWWG 5-mer peptide containing natural residues were tested in the above described FP assay. The peptides were tested at a concentration of 50 μM.
To determine if the peptides of this application were able to disrupt the SD1-9-mer complex, each peptide (in single point or dose-response curve) tested was incubate with SD1 protein for 1 h at RT. After this initially incubation, FITC-9mer was added to the previous mix and incubated during 2 h at RT. The signal intensity was measure in an appropriate plate reader using the following settings: Number of flashes per well: 200; Excitation: F482-16; Dichroic filter: FLP 504; Emission A F530-40; Gain A: 738, Gain B: 736. The assay was conducted in a 384-well plate.

In order of falling “% inhibition 50 µM” value:
1. B26  85.5%
2. B17  75%
3. B10  66.4%
4. B21  55.9%
5. B24  53.4%
6. B23  48.6%
7. B22  47.9%
8. B16  47.5%
9. B20  41.4%
10. B11  33.5%
11. B18  33.5%
12. B15  25%
13. B12  20%
14. B19  19.4%
15. B9  17.9%
16. B13  15.9%
17. B25  5.28%
18. B8  -7%
19. B14  -7%

In order of rising IC50:
1. B26  14 µM
2. B17  16.5 µM
3. B23  21.2 µM
4. B12  35.6 µM
5. B8  186 µM
